Experimental data from patent US10723806B2, “Method of introducing nucleic acid into plant cells” (RIKEN, priority 2012, dated 2020).
Ends that are not written are not given here.

What was measured:
[1] = system: mitochondria of leaf of Arabidopsis thaliana L.; assay: Organelle selective gene introduction, Renilla luciferase expression in mitochondria of Arabidopsis thaliana L. leaf; format: in vivo; conditions: complex with pDONRcox2p: rluc/gfp
Protocol: A carrier peptide comprising a mitochondrial transit sequence (Cytochrome c oxidase subunit IV (yeast)) and a polycationic sequence was synthesized. In other words, ([…]) (SEQ ID NO: 43) was synthesized by the solid phase peptide synthesis. The mitochondrial transit sequence is represented by MLSLRQSIRFFK (SEQ ID NO: 44) and the polycationic sequence is represented by KHKHKHKHKHKHKHKHKH) (SEQ ID NO: 22). Then, a complex was prepared from the carrier peptide synthesized and a plasmid vector (pDONRcox2p: rluc/gfp) that can function in mitochondria. In the same manner as in the above Examples, the complex was introduced into a leaf of Arabidopsis thaliana L. and expression of a reporter gene (Renilla Luciferase) in the mitochondria was quantitatively evaluated. Using a promoter (cox) which specifically functions in mitochondria, whether the complex was specifically introduced into the mitochondria was determined.

[2] = Dynamic light scattering (DLS) size and PDI of carrier peptide-pDNA complexes; format: physicochemical; conditions: complex with pDNA
Protocol: Ionic complexes of carrier peptides (R9-BP100 and (KH)9-BP100) different in N/P ratio and pDNA encoding a reporter gene were prepared and characterized by use of dynamic light scattering (DLS), an atomic force microscope (AFM), a zeta potential meter and agarose gel electrophoresis. The N/P ratio herein refers to the ratio of the number of amine groups from the carrier peptide and the number of phosphate groups from pDNA.
(§1) Two types of pDNA, i.e., green fluorescence protein (GFP)-encoding P35S-GFP (S65T)-TNOS and Renilla luciferase (RLuc)-encoding P35S-RLuc-TNOS, were used as reporter genes. All pDNA molecules were amplified in a competent DH5α E. coli (Takara) and purified by an Endofree Plasmid Giga Kit (Qiagen). To prepare a carrier peptide-pDNA complex, a carrier peptide (0.5 g/L) was mixed with a pDNA solution (about 1.0 mg/mL) so as to have different N/P ratios (0.5, 1, 2, 5, 10 and 20) at 25° C. Immediately after mixing, complexes were characterized by a zeta potential meter (Zetasizer Nano-ZS, Malvern Instruments Ltd) and an atomic force microscope (Seiko Instruments).
(§2) Solutions containing complexes each were diluted with ultra-pure water (MilliQ) up to a final volume of 800 μL and subjected to measurement of zeta potential and size. The zeta potential and zeta shift of the solution samples were measured three times by a zeta potential meter and averages of data were obtained by use of Zetasizer software ver 6.20 (Malvern Instruments Ltd). Dynamic light scattering (DLS) was performed to determine hydrodynamic diameters. Subsequently, polydispersion indexes (PDI) were determined by use of a zeta nanosizer (Zetasizer software ver 6.20) using He—Ne laser (633 nm) at 25° C. and a backscattering detection angle of 173°. Observation by an AFM was performed by fixing a complex solution on cut mica and using a silicon cantilever in air at room temperature in a tapping mode at a spring constant of 1.3 N/m. A cantilever tip rotation effect was obtained by calculation and true dimensions of complexes were obtained by the method previously reported (K. Numata, Y. Kikkawa, T. Tsuge et al., Macromol Biosci 6 (1), 41, 2006; K. Numata, T. Hirota, Y. Kikkawa et al., Biomacromolecules 5 (6), 2186, 2004). For gel retardation assay, each sample (40 μL) containing 1.0 μg of pDNA was mixed with a loading buffer, analyzed on a 1% agarose gel (TAE buffer, 100 V, 30 minutes) and stained with ethidium bromide.

[3] = Zeta potential of carrier peptide-pDNA complexes; format: physicochemical; conditions: pDNA complex
Protocol: as §1, §2

[4] = system: pDNA; assay: Gel retardation assay (agarose gel electrophoresis) of carrier peptide-pDNA complexes; format: physicochemical; conditions: pDNA complex
Protocol: as §2

[5] = system: Nicotiana benthamiana leaf; assay: In-vivo transfection of tobacco leaf with RLuc-encoding pDNA complex, Renilla luciferase assay; conditions: for transfection efficiency (RLuc assay) compared to complexes having other N/P ratios: N/P ratio 0.5, tobacco leaf; for incubation time showing the highest transfection efficiency: tobacco leaf, sampled 12 to 144 hours; for RLuc expression (relative photometric unit/protein weight): peptide alone as carrier of pDNA, N/P ratio 0.5, 12 hours, benthamiana tobacco leaf
Protocol: In-vivo transfection experiment using the tobacco leaf was performed to evaluate an ability of a carrier peptide-pDNA complex to deliver a gene into plant cells through a cell wall. Complexes of pDNA encoding RLuc and GFP serving as a reporter gene with R9-BP 100 and (KH)9-BP100 were directly allowed to permeate into Nicotiana benthamiana leaf. To determine the most efficient N/P ratio of a pDNA complex in the range of 0.1 to 20, a transfection efficiency is quantitatively characterized by use of RLuc assay.
A target plant was prepared as follows. Seeds of benthamiana tobacco were germinated in a pot containing a culture medium, which is a mixture of a soil (Pro-Mix) and vermiculite in a ratio of 2:1. The benthamiana tobacco plant was grown up to three weeks in a plant incubator (Biotron NK System) under constant light irradiation for 24 hours at a temperature of 29° C.
Leaves of benthamiana tobacco were sufficiently spread and directly impregnated with a solution (about 100 μL) of a complex comprising pDNA encoding green fluorescence protein (GFP) and Renilla luciferase (RLuc) by use of a syringe without a needle. The benthamiana tobacco plants thus treated were incubated in a plant incubator separately at a temperature of 29° C. and 21° C. under constant light irradiation for 16 hours per day until 6 days. To quantitatively evaluate RLuc gene expression, Renilla luciferase assay (Promega) was performed in accordance with the protocol provided by a manufacturer (n=4).
To be described in brief, sampling of the leaf impregnated was performed periodically in the range of 12 hours to 144 hours by cutting a square (1 cm^2) around an impregnated section. The samples each were lysed by use of Renilla Luciferase Assay Lysis Buffer (Promega). The lysate was briefly centrifuged and the supernatant was mixed with Renilla Luciferase Assay Substrate and Renilla Luciferase Assay Buffer (Promega). Gene expression was evaluated by a multi-mode microplate reader (Spectra MAX M3, Molecular Devices Corporation) based on the intensity (relative photometric unit) of photoluminescence. The amount of protein in the supernatant was determined by BCA protein assay (Pierce Biotechnology) to obtain a relative photometric unit/protein weight (RLU/mg). A transformant with RLuc gene-encoding pDNA via Agrobacterium (Agrobacterium) was used as a positive control in the experiment.
The statistical difference in transfection efficiency was determined by independent t-test using bilateral distribution. It was regarded that a statistically-significant difference is present at p<0.05. The data obtained in a cell survivability experiment are shown as an average±a standard deviation (n=4).

[6] = system: Arabidopsis thaliana L.; assay: Introduction of giant DNA (80 kbp luciferase plasmid) into Arabidopsis thaliana L.; format: in vivo; conditions: complex with 80 kbp luciferase plasmid, twelve hours after introduction
Protocol: A plasmid (80 kbp) encoding luciferase was prepared by use of Bacillus subtilis and introduced into Arabidopsis thaliana L. by use of a carrier peptide ((KH)9-BP100). Twelve hours after introduction of the complex, luciferase was extracted from the leaf and subjected to quantitative analysis.

[7] = N/P ratio within the range of 2 to 20

## MLSLRQSIRFFKKHKHKHKHKHKHKHKHKH [SEQ ID NO: 43]
[1]
  gene introduction efficiency to mitochondria (Rluc) among N/P=0.5, 1 and 2: a highly significant difference was shown

## KHKHKHKHKHKHKHKHKHKKLFKKILKYL-NH2 [(KH)9-BP100, tested as ionic complex with pDNA]
[2]; N/P ratio 0.5
  PDI: 0.31
  Size (average hydrodynamic diameter, DLS): 291 nm
[2]; N/P ratio 1
  PDI: 0.30
  Size (average hydrodynamic diameter, DLS): 322 nm
[2]; N/P ratio 2
  PDI: 0.23
  Size (average hydrodynamic diameter, DLS): 139 nm
[2]; N/P ratio 5
  PDI: 0.23
  Size (average hydrodynamic diameter, DLS): 106 nm
[2]; N/P ratio 10
  PDI: 0.23
  Size (average hydrodynamic diameter, DLS): 96 nm
[2]; N/P ratio 20
  PDI: 0.24
  Size (average hydrodynamic diameter, DLS): 114 nm
[3]; N/P ratio of 0.5 and 1
  zeta potential: negative values
[3]; [7]
  zeta potential: positive values
[4]; N/P ratio up to 10
  mobility of pDNA in agarose gel electrophoresis: a small amount of pDNA migrated
[5]; pDNA complex
  transfection efficiency (RLuc assay) compared to complexes having other N/P ratios: highest transfection efficiency
  incubation time showing the highest transfection efficiency: 12 h
[6]
  luciferase activity in leaf: efficient luciferase activity was confirmed

## KHKHKHKHKHKHKHKHKH [(KH)9, reference compound]
[5]
  RLuc expression (relative photometric unit/protein weight): 340±60 RLU/mg

## RRRRRRRRRKKLFKKILKYL-NH2 [R9-BP100, tested as ionic complex with pDNA]
[2]; N/P ratio 0.5
  PDI: 0.34
  Size (average hydrodynamic diameter, DLS): 319 nm
[2]; N/P ratio 1
  PDI: 0.38
  Size (average hydrodynamic diameter, DLS): 321 nm
[2]; N/P ratio 2
  PDI: 0.21
  Size (average hydrodynamic diameter, DLS): 151 nm
[2]; N/P ratio 5
  PDI: 0.21
  Size (average hydrodynamic diameter, DLS): 127 nm
[2]; N/P ratio 10
  PDI: 0.23
  Size (average hydrodynamic diameter, DLS): 114 nm
[2]; N/P ratio 20
  PDI: 0.25
  Size (average hydrodynamic diameter, DLS): 116 nm
[3]; N/P ratio of 0.5 and 1
  zeta potential: negative values
[3]; [7]
  zeta potential: positive values
[4]; N/P ratio of 0.5 to 2
  mobility of pDNA in agarose gel electrophoresis: the same mobility as that of a free pDNA
[4]; N/P ratio of 10 and 20
  mobility of pDNA in agarose gel electrophoresis: no mobility was observed
[5]; pDNA complex
  transfection efficiency (RLuc assay) compared to complexes having other N/P ratios: highest transfection efficiency
  incubation time showing the highest transfection efficiency: 12 h
[5]; pDNA complex, compared to (KH)9-BP100
  time-dependent transfection behavior: quick and short transfection behavior

## KKLFKKILKYL [BP100, cell-penetrating peptide alone, synthesized for controls, reference compound]
[5]
  RLuc expression (relative photometric unit/protein weight): 120±70 RLU/mg
